{"source": "paper PMC4114240", "biological_target": "Xanthomonas campestris pv. campestris RpfB with an N-terminal hexahistidine tag (Xanthomonas campestris pv. campestris 8004)", "assay": "SEC", "note": "Values joined by “and” are separate entries in the source; they are usually repeats but may differ in a detail not shown here. Identical values can stand only once.", "data": [{"substance": "Xanthomonas campestris pv. campestris RpfB with an N-terminal hexahistidine tag (enzyme)", "values": [{"measurement": "stoichiometry N", "value": "3 and 6"}]}]}
